Test results from paper doi:10.1101/2024.10.02.616253 (bioRxiv, 2024).

Target: BTN3A1 ectodomain (human, UniProt O00481)
Assay: SPR

BTN3A1 ectodomain, sequence (O00481 30-254): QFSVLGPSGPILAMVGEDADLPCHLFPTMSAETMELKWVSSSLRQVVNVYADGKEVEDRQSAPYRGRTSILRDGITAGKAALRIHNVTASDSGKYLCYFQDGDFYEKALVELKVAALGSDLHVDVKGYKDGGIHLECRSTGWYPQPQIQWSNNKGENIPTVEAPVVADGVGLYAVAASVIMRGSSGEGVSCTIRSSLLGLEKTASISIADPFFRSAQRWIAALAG

binding result: binds
B1: TH001 monoclonal antibody (antibody, V domains shown)
VH: EVHVKQSGAELARPGTSVKLSCKASGYTFTDYYLNWVKQRTGQGLEWIGEIYPGGGNTYYNEKFKGKATLTADKSSSTAYMQLSSLTSEDSAVYFCARRTTVVGDYWGQGTTLTVSS
VL: DVLMTQTPLSLPVSLGDQASISCRSSQSIVNSKGNTYLEWYVQKPGQSPKLLIYKVSNRFSGVPDRFSGSGSGTDFTLKISRVEAEDLGVYYCFQGSHVPWTFGGGTKLEIK
